A word on the pKa: it is the negative logarithm of the acid dissociation constant. Low readings indicate a group that gives up its proton readily, high ones a group that holds its proton tightly.

In this data set the target is Glu387 (UniProt position 387, YMYVTENGIAD). Nature of the data set: kinetics. To be noted: 65 °C; 50.0 mM sodium citrate (pH 3.0–5.6), sodium phosphate (pH 6.0–8.0) and KCl/borate (pH 8.0–10.0); enzyme-substrate complex with 4Np-Glc, as described by the authors; folded, active enzyme.

For the substance “beta-glycosidase (Ssβ-gly) H150A mutant (A150) (Sulfolobus solfataricus (Saccharolobus solfataricus); H150A)”, the pKa is given as 5.29 ± 0.18. Substance “beta-glycosidase (Ssβ-gly) (Sulfolobus solfataricus (Saccharolobus solfataricus))” yielded a pKa of 3.41 ± 0.13.

Values taken from article PMC6522968.
